From US20060241051A1 (Takeda / Millennium, published 2006) come the findings set out here.

Numbered stars: 1 amine (or outer) side, 2 acyl side, 3 side chain; on linkers, the order of the positions; unused ones are H or OH. Square brackets hold non-standard residues; d marks the D form. Primed or numbered codes have the meaning given here. Ends that are not written are not given here. Trp(For)″ = Trp(CHO), O=Cn1cc(C[C@H](N[*:1])C(=O)[*:2])c2ccccc21; Arg(Me) = CNC(=N)NCCC[C@H](N)C(=O)O; 2Pal = N[C@@H](Cc1ccccn1)C(=O)O; 3Pal = N[C@@H](Cc1cccnc1)C(=O)O; Cha = N[C@@H](CC1CCCCC1)C(=O)O; Dab = NCC[C@H](N)C(=O)O; azaGly = NNC(=O)O

B1: Compound No. 285: [D-Tyr1,Pya(2) 3,AzaGly7,Arg(Me)9]MS10 (peptide)
peptide: [dY]N[2Pal]NSF[azaGly]L[Arg(Me)]F-NH2
modifications: N-terminus assumed
SMILES: CNC(=N)NCCC[C@H](NC(=O)[C@H](CC(C)C)NC(=O)NNC(=O)[C@H](Cc1ccccc1)NC(=O)[C@H](CO)NC(=O)[C@H](CC(N)=O)NC(=O)[C@H](Cc1ccccn1)NC(=O)[C@H](CC(N)=O)NC(=O)[C@H](N)Cc1ccc(O)cc1)C(=O)N[C@@H](Cc1ccccc1)C(N)=O
B2: Compound No. 251: [D-Tyr1,Pya(3) 3,AzaGly7,Arg(Me)9]MS10 (peptide)
peptide: [dY]N[3Pal]NSF[azaGly]L[Arg(Me)]F-NH2
modifications: N-terminus assumed
SMILES: CNC(=N)NCCC[C@H](NC(=O)[C@H](CC(C)C)NC(=O)NNC(=O)[C@H](Cc1ccccc1)NC(=O)[C@H](CO)NC(=O)[C@H](CC(N)=O)NC(=O)[C@H](Cc1cccnc1)NC(=O)[C@H](CC(N)=O)NC(=O)[C@H](N)Cc1ccc(O)cc1)C(=O)N[C@@H](Cc1ccccc1)C(N)=O
B3: Compound No. 275: des(1-2)-Acetyl-[Arg3,AzaGly7,Arg(Me)9]MS10 (peptide)
peptide: Ac-RNSF[azaGly]L[Arg(Me)]F-NH2
SMILES: CNC(=N)NCCC[C@H](NC(=O)[C@H](CC(C)C)NC(=O)NNC(=O)[C@H](Cc1ccccc1)NC(=O)[C@H](CO)NC(=O)[C@H](CC(N)=O)NC(=O)[C@H](CCCNC(=N)N)NC(C)=O)C(=O)N[C@@H](Cc1ccccc1)C(N)=O
B4: Compound No. 276: des(1-2)-Acetyl-[Thr3,AzaGly7,Arg(Me)9]MS10 (peptide)
peptide: Ac-TNSF[azaGly]L[Arg(Me)]F-NH2
SMILES: CNC(=N)NCCC[C@H](NC(=O)[C@H](CC(C)C)NC(=O)NNC(=O)[C@H](Cc1ccccc1)NC(=O)[C@H](CO)NC(=O)[C@H](CC(N)=O)NC(=O)[C@@H](NC(C)=O)[C@@H](C)O)C(=O)N[C@@H](Cc1ccccc1)C(N)=O

T1 sequence (Q969F8 whole entry L364H): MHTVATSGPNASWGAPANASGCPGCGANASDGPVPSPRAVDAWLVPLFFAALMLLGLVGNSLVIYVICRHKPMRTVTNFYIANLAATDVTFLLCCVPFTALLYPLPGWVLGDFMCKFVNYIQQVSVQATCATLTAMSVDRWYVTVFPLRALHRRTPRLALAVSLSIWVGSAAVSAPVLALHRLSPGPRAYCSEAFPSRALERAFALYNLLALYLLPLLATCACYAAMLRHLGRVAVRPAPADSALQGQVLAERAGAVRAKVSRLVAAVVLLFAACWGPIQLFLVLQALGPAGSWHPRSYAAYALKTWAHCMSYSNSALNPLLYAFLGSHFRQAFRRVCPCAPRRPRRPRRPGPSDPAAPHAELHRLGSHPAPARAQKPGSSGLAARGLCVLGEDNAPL

This assay has as its target T1, human OT7T175 (metastin receptor) (human, UniProt Q969F8 1-398).
T1 construct: expressed on CHO cells (hOT7T175-expressed CHO cells; hOT7T175/CHO); also called hOT7T175; h0T7T175
The experiment in a line: FMAT competition with Cy-5-labeled metastin (40-54), hOT7T175-expressed CHO cells. The method, then: h0T7T175-Expressed CHO cells were cultured in MEM-α medium (nucleic acid-free) containing 10% dialyzed serum. The medium was removed and the adherent cells were washed with PBS. Then, PBS containing 5 mM EDTA was added and the cells were scraped from a flask with a cell scraper. […] To each well of a 96-Well Black Clear Bottom Plate (Applied Biosystems, Inc.), 10 μL of assay buffer containing 1% dimethylsulfoxide was added to examine total binding, 10 μL of 10 μM non-labeled peptide (having the same amino acid sequence as that of the labeled one) solution diluted with assay buffer to examine non-specific binding, and 10 μL of a test compound diluted with assay buffer to examine the binding inhibition activity of the test compound, respectively. Furthermore, 90 μL each of the cell suspension was dispensed to each well. […] The specific binding is a value obtained by subtracting the non-specific binding from the total binding.
As to B1, the IC50 is 40 nM.
To NWNSFGLRF-NH2 (also called human metastin 9 (46-54)) [Compound No. 4: des(1)-MS10] belongs 260 nM.
To [dY]SNSF[azaGly]L[Arg(Me)]F-NH2 [Compound No. 239: des(1)-[D-Tyr2,Ser3,AzaGly7,Arg(Me)9]MS10] belongs 120 nM; to [dY]SNSFGL[Arg(Me)]F-NH2 [Compound No. 226: des(1)-[D-Tyr2,Ser3,Arg(Me)9]MS10], 100 nM.
To [dY]TNSFGL[Arg(Me)]F-NH2 [Compound No. 227: des(1)-[D-Tyr2,Thr3,Arg(Me)9]MS10] belongs 48 nM; to [dY]INSF[azaGly]L[Arg(Me)]F-NH2 [Compound No. 240: des(1)-[D-Tyr2,Ile3,AzaGly7,Arg(Me)9]MS10], 17 nM; to [dN][dW]NSFGL[Arg(Me)]F-NH2 [Compound No. 225: des(1)-[D-Asn2,D-Trp3,Arg(Me)9]MS10], 410 nM.
[dY][dN][Cha]NSF[azaGly]L[Arg(Me)]F-NH2 [Compound No. 283: [D-Tyr1,D-Asn2,Cha3,AzaGly7,Arg(Me)9]MS10] had an IC50 of 0.69 nM.
As for YNWNYFGLRF-NH2 [Compound No. 23: [Tyr5]MS10], the concentration for half-maximal inhibition (IC50) came to 400 nM.
YNSNSFGLRF-NH2 [Compound No. 69: [Ser3]MS10] returned an IC50 of 83 nM.
For YNWNSFGLKF-NH2 [Compound No. 44: [Lys9]MS10] the value was 190 nM; for YYWNSFGLRF-NH2 [Compound No. 58: [Tyr2]MS10], 16 nM.
Take YDWNSFGLRF-NH2 [Compound No. 57: [Asp2]MS10]: the IC50 was 100 nM.
The molecule [dY]NSNSF[azaGly]L[Arg(Me)]F-NH2 [Compound No. 191: [D-Tyr1,Ser3,AzaGly7,Arg(Me)9]MS10] came in with an IC50 of 300 nM.
For YNWNSFGLR[Trp(For)″]-NH2 (also called [Trp(CHO)10]MS10) [Compound No. 186: [Trp(For)10]MS10] the value was 460 nM; for [dY]NTNSF[azaGly]L[Arg(Me)]F-NH2 [Compound No. 221: [D-Tyr1,Thr3,AzaGly7,Arg(Me)9]MS10], 95 nM.
To [dY]N[dA]NSF[azaGly]L[Arg(Me)]F-NH2 [Compound No. 252: [D-Tyr1,D-Ala3,AzaGly7,Arg(Me)9]MS10] belongs 580 nM.
To YNDNSFGLRF-NH2 [Compound No. 70: [Asp3]MS10] belongs 200 nM.
Turning to YNLNSFGLRF-NH2 [Compound No. 68: [Leu3]MS10], the IC50 stood at 7.7 nM.
[dY]NPNSF[azaGly]L[Arg(Me)]F-NH2 [Compound No. 253: [D-Tyr1,Pro3,AzaGly7,Arg(Me)9]MS10]: the IC50 was found to be 27 nM.
As to LNWNSFGLRF-NH2 [Compound No. 73: [Leu1]MS10], the IC50 amounted to 220 nM.
Take YNWNSYGLRF-NH2 [Compound No. 150: [Tyr6]MS10]: the IC50 turned out to be 320 nM.
To YNWNSFGVRF-NH2 [Compound No. 107: [Val8]MS10] belongs 120 nM; to YNKNSFGLRF-NH2 [Compound No. 71: [Lys3]MS10], 66 nM; to YLWNSFGLRF-NH2 [Compound No. 59: [Leu2]MS10], 340 nM.
As to ANWNSFGLRF-NH2 [Compound No. 72: [Ala1]MS10], the IC50 worked out at 540 nM.
YNANSFGLRF-NH2 [Compound No. 67: [Ala3]MS10] came in with an IC50 of 27 nM.
Molecule YNWNSFGL[Dab]F-NH2 [Compound No. 313: [Dab9]MS10] came in with an IC50 of 690 nM.
To [dY]NWNSFGL[Arg(Me)]F-NH2 (also: Phe6-Gly7 bond reduced (CH2NH)) [Compound No. 308: [6Ψ7, CH2NH,D-Tyr1,Arg(Me)9]MS10] belongs 350 nM.
For the molecule YNWNSF[azaGly]L[Arg(Me)]F-NH2 (also: Tyr1-Asn2 bond reduced (CH2NH)) [Compound No. 299: [1Ψ2,CH2NH,AzaGly7,Arg(Me)9]-MS10], the IC50 is 1.2 nM.
For [dY]NWNSFGL[Arg(Me)]F-NH2 (also: Gly7-Leu8 bond reduced (CH2NH)) [Compound No. 307: [7Ψ8,CH2NH,D-Tyr1,Arg(Me)9]MS10], the IC50 came to 64 nM.
To [dW]NSFGL[Arg(Me)]F-NH2 [Compound No. 223: des(1-2)-[D-Trp3,Arg(Me)9]MS10] belongs 760 nM.
To [dY]N[Cha]NS[Cha]GL[Arg(Me)]F-NH2 [Compound No. 181: [D-Tyr1,Cha3,6,Arg(Me)9]MS10] belongs 19 nM.
With B2, the IC50 came out at 87 nM.
B3 came in with an IC50 of 410 nM.
B4: the IC50 was found to be 480 nM.
For [dY]N[dW]NSF[azaGly]LR(Me)F-NH2 [Compound No. 236: (D-Tyr1,D-Trp3,AzaGly7,Arg(Me)9]MS10] the value was 42 nM.
